In US20240254222A1 (Bayer, published 2024):
Changes are numbered by the printed parent chain.

B1: TPP-17755 (antibody, human IgG1, lambda, V domains shown)
VH: EVQLLESGGGLVQTGGSLRLSCAASGFTFSDYAMSWVRQAPGKGLEWVSWIYYDSGSKYYADSVKGRFTISRDNSKNTLYLQMNSLRAEDTAVYYCAKLNGDFDYWGQGTLVTVSS
VL: QSVLTQPPSASGTPGQRVTISCSGSSSNIGNNDVSWYQQLPGTAPKLLIYADSHRPSGVPDRFSGSKSGTSASLAISGLRSEDEADYYCGAWDSSLSGYVFGGGTKLTVLG
notes: also called Samsung; Samsung Prior Art F11
B2: TPP-23337 (antibody, human IgG4 S228P, lambda, V domains shown)
VH: EVQLLESGGGLVQPGGSLRLSCAASGFTFSSYAMSWVRQAPGKGLEWVSAIGYGGDTYYADSVKGRFTISRDNSKNTLYLQMNSLRAEDTAVYYCARRDDYTSRDAFDYWGQGTLVTVSS
VL: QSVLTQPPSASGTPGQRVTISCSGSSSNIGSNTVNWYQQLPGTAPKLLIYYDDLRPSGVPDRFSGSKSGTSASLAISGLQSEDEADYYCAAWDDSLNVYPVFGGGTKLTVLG
B3: TPP-23298 (antibody, human IgG4 S228P, lambda, V domains shown)
VH: B2 VH with S30Y, Y53T
VL: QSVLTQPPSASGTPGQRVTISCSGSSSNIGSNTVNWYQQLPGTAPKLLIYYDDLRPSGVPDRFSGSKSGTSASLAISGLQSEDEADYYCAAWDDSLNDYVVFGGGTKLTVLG
B4: TPP-23334 (antibody, human IgG4 S228P, lambda, V domains shown)
VH: B2 VH
VL: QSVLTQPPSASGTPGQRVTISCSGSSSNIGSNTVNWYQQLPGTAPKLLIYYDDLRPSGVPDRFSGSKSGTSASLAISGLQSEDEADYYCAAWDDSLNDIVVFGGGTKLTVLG
B5: TPP-23374 (antibody, human IgG4 S228P, lambda, V domains shown)
VH: B2 VH with S30Y
VL: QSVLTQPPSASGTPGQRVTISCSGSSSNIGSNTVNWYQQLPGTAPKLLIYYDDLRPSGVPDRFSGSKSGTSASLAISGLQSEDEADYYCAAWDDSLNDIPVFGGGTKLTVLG
B6: TPP-15370 (antibody, human IgG1, lambda, V domains shown)
VH: B2 VH with A33G, S35H, Y53T, K64M, Y109V
VL: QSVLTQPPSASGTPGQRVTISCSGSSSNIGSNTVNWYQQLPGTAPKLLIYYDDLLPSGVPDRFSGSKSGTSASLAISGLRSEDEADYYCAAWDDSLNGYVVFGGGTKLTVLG
notes: human IgG1; also called IgG1, hit from panning; parental mAb
B7: TPP-30788 (antibody, human IgG1, kappa, V domains shown)
VH: EVQLVESGGGLVQPGGSLRLSCAASGFTFSSYYMSWVRQAPGKGLEWVSTIIKSGGYAYYPDSVKDRFTISRDNSKNTLYLQMSSLRAEDTAVYYCVRGGQGAMDYWGQGTTVTVSS
VL: EIVLTQSPATLSLSPGERATLSCRASQSIGDYLHWYQQKPGQAPRLLIKYASQSISGIPARFSGSGSGTDFTLTITSLEPEDFAVYYCQQGYSFPYTFGGGTKLEIKR
notes: prior art, WO 2020/225400; also called BI clone I; Böhringer (BI) Clone I
B8: TPP-30789 (antibody, human IgG1, kappa, V domains shown)
VH: B7 VH with T28P
VL: B7 VL
notes: prior art, WO 2020/225400; also called BI clone II; Böhringer (BI) Clone II
B9: TPP-30790 (antibody, human IgG1, kappa, V domains shown)
VH: B7 VH with P14L, S84N, R98K
VL: B7 VL with K49Y, T76S
notes: prior art, WO 2020/225400; also called BI clone III; Böhringer (BI) Clone III
B10: TPP-30791 (antibody, human IgG1, kappa, V domains shown)
VH: B7 VH with V12L, P14L, Y80N, S84N, R98K
VL: B7 VL with T76S
notes: prior art, WO 2020/225400; also called BI clone IV; Böhringer (BI) Clone IV
B11: TPP-11489 (antibody, human IgG1, lambda)
heavy: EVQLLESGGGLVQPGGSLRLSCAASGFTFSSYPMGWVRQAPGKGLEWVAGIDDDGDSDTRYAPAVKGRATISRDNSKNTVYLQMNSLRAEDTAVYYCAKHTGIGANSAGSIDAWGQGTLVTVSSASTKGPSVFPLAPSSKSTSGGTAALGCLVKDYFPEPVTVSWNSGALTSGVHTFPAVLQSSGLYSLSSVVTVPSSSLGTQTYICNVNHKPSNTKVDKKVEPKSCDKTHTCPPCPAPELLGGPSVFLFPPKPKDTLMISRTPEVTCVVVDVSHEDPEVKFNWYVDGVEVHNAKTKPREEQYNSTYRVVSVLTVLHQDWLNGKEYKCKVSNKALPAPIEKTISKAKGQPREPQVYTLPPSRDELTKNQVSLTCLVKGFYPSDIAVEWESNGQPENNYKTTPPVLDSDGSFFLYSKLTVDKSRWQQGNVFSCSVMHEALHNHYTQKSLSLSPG
light: SYELTQPPSVSVSPGQTARITCSGGGSYTGSYYYGWYQQKPGQAPVTVIYYNNKRPSDIPERFSGSLSGTTNTLTISGVQAEDEADYYCGSADNSGDAFGTGTKVTVLGQPKAAPSVTLFPPSSEELQANKATLVCLISDFYPGAVTVAWKADSSPVKAGVETTTPSKQSNNKYAASSYLSLTPEQWKSHRSYSCQVTHEGSTVEKTVAPTECS
notes: human IgG1; also called Chiome; Chiome Prior Art (hIgG1)
B12: TPP-15374 (antibody, human IgG1, lambda, V domains shown)
VH: EVQLLESGGGLVQPGGSLRLSCAASGFTFSSYEMNWVRQAPGKGLEWVSGISWNSGSIGYADSVKGRFTISRDNSKNTLYLQMNSLRAEDTAVYYCARSGYSSSWFDPDFDYWGQGTLVTVSS
VL: QSVLTQPPSASGTPGQRVTISCTGSSSNIGAGYDVHWYQQLPGTAPKLLIYGNSNRPSGVPDRFSGSKSGTSASLAISGLRSEDEADYYCSSYAGSNPYVVFGGGTKLTVLG
notes: as for B6
B13: TPP-30792 (antibody, human IgG1, lambda, V domains shown)
V domain 1: EVQLLESGGGLVQPGGSLRLSCAASGFTFRSYAVHWVRQAPGKGLEWVSSTEGSGVGTSYTDSVKGRFTISRDNSKNTLYLQMNSLRAEDTAVYYCARMLGGGNPLDYLDYWGQGTLVTVSS
V domain 2: QSVLTQPPSASGTPGQRVTISCSGSSSNLGEGYDVHWYQQLPGKAPKLLIYYSDFRPSGVSDRFSGSKSGTSASLAISGLQSEDEADYYCAAWDDSLSSQVFGGGTQVTVLG
notes: IgG1; prior art, WO 2020/261281; also called 3H4 Univ Ramot; 3H4 (Ramot) Clon I
B14: TPP-23338 (antibody, human IgG4 S228P, lambda, V domains shown)
VH: B2 VH
VL: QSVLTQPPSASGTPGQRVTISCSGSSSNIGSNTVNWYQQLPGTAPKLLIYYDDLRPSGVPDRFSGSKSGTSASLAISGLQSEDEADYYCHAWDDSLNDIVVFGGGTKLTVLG
B15: TPP-23340 (antibody, human IgG4 S228P, lambda, V domains shown)
VH: B2 VH
VL: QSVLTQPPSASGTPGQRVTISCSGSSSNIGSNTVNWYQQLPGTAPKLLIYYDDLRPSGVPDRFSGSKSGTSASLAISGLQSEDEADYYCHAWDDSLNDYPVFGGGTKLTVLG
B16: TPP-23341 (antibody, human IgG4 S228P, lambda, V domains shown)
VH: B2 VH
VL: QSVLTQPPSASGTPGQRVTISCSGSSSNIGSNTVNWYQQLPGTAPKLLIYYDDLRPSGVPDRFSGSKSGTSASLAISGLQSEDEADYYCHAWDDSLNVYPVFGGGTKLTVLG
B17: TPP-23345 (antibody, human IgG4 S228P, lambda, V domains shown)
VH: B2 VH
VL: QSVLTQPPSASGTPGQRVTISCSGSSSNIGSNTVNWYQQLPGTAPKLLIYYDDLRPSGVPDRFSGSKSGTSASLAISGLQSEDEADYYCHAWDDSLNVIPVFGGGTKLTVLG
B18: TPP-23346 (antibody, human IgG4 S228P, lambda, V domains shown)
VH: B2 VH with S30Y, S35L, Y53T
VL: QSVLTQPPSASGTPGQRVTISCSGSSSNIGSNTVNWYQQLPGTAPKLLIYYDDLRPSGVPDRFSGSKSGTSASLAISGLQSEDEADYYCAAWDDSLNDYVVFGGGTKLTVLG
B19: TPP-23347 (antibody, human IgG4 S228P, lambda, V domains shown)
VH: B2 VH with S30Y, S35L, Y53T
VL: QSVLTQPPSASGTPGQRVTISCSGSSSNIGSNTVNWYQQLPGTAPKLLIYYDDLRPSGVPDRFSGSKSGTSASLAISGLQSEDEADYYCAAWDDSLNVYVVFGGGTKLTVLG
B20: TPP-23373 (antibody, human IgG4 S228P, lambda, V domains shown)
VH: B2 VH with S30Y
VL: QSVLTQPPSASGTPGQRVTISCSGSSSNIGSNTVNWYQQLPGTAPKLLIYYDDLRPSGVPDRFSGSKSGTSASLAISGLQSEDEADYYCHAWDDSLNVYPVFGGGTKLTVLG
B21: TPP-23375 (antibody, human IgG4 S228P, lambda, V domains shown)
VH: B2 VH with S30Y
VL: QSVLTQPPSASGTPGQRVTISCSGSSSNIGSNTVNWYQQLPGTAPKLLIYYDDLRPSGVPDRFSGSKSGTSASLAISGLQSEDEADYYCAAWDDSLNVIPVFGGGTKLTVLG

molecular target: T1, Rat Semaphorin3A-Sema Domain, TPP-19120 (rat, UniProt Q63548 21-569); experiment: SPR, captured antibody, Sema3A domain analyte
T1 construct: produced inhouse
T1 sequence: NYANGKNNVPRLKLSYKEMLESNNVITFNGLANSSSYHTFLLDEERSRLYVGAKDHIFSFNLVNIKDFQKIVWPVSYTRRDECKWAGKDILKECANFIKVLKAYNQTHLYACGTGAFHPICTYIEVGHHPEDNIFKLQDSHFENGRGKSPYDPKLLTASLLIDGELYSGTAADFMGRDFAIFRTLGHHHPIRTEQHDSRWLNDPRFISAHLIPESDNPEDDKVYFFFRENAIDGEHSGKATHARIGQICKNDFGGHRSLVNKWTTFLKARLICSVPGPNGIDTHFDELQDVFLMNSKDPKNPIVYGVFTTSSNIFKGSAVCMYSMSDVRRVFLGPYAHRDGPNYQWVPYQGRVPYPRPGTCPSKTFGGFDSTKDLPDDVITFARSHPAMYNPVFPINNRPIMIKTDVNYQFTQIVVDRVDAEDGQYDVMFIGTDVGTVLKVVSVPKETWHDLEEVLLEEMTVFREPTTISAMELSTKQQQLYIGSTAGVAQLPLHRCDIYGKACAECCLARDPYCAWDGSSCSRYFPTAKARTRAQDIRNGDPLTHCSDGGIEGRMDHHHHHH
Method in brief: (§1)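 Kinetics fitted to a 1:1 Langmuir model after double referencing; glycine pH 2.0 regeneration. Sema3A domain analytes (several species) ran at […]-3.125 nM multi-cycle or single 100 nM; Fc-tagged Sema3A at 1.56-200 nM over Fab-captured antibody, otherwise Fc capture. Buffer HBS P+ plus 300 mM NaCl, CaCl₂, MgCl₂, BSA, 25° C.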

Binder | Kd | binding result
B1 | 5.4 nM | 
B2 | 0.11 nM | 
B3 | 0.03 nM | 
B4 | 0.056 nM | 
B5 | 0.0033 nM | 
B6 | 14 nM | 
B7 | 0.026 nM | 
B8 | 0.026 nM | 
B9 | 0.022 nM | 
B10 | 0.017 nM | 
B11 | 33 nM | 
B12 | 9.8 nM | 
B13 |  | no binding

Molecular target: T2, Dog Semaphorin3A-Sema Domain, TPP-19121 (dog, UniProt Q63548 21-569 (rat entry), limits assumed)
T2 construct: produced inhouse
T2 chain: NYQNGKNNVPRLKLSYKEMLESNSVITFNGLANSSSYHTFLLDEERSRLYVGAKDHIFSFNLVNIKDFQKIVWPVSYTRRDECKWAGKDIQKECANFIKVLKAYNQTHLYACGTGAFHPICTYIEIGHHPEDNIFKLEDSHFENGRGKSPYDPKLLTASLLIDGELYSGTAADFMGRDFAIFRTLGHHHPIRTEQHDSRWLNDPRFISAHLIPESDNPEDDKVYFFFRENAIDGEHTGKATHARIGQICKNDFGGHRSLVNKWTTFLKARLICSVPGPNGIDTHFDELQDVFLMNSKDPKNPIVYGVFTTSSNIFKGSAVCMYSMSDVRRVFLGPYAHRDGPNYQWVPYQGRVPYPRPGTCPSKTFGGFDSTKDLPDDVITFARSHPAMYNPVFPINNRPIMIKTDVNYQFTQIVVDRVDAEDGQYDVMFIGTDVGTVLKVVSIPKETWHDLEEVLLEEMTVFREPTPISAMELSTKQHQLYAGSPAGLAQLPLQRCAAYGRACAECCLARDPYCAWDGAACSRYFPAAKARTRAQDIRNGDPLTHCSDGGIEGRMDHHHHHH
Experiment: SPR, captured antibody, Sema3A domain analyte
Method in brief: as §1

Binder | Kd | binding result
B1 | 7.5 nM | 
B2 | 0.0045 nM | 
B3 | 0.07 nM | 
B4 | 0.0084 nM | 
B14 | 0.053 nM | 
B15 | 0.058 nM | 
B16 | 0.084 nM | 
B17 | 0.046 nM | 
B18 | 0.061 nM | 
B19 | 0.051 nM | 
B20 | 0.1 nM | 
B5 | 0.0073 nM | 
B21 | 0.045 nM | 
B6 | 22 nM | 
B7 | 0.11 nM | 
B8 | 0.11 nM | 
B9 | 0.1 nM | 
B10 | 0.078 nM | 
B11 | 50 nM | 
B12 | 19 nM | 
B13 |  | no binding

Molecular target: T3, Pig Semaphorin3A-Sema Domain, TPP-20176 (pig, UniProt Q63548 21-569 (rat entry))
T3 construct: produced inhouse
T3 chain: T1 sequence with A3Q, V126I, Q138E, S237T, I303V, V444I, I483V, T486A
Experiment: SPR, captured antibody, Sema3A domain analyte
Method in brief: as §1

Binder | Kd | binding result
B1 | 4 nM | 
B2 | 0.011 nM | 
B3 | 0.067 nM | 
B4 | 0.014 nM | 
B14 | 0.046 nM | 
B15 | 0.062 nM | 
B16 | 0.086 nM | 
B17 | 0.055 nM | 
B18 | 0.058 nM | 
B19 | 0.053 nM | 
B20 | 0.078 nM | 
B5 | < 0.003 nM | 
B21 | 0.047 nM | 
B6 | 9 nM | 
B7 | 0.038 nM | 
B8 | 0.039 nM | 
B9 | 0.036 nM | 
B10 | 0.029 nM | 
B11 | 100 nM | 
B12 | 7.2 nM | 
B13 |  | no binding
